16 variants from the supplement of paper PMC7125110 can be followed below.

First the molecules themselves.
B1: glmS ribozyme (parent)
chain: AUAAAAGCGCCAGAACUACAGAAAUGUAGUUGACGAGGAGGAGGUUUAUCGAAUUUUCGGCGGAUGCCUCCAAA

Common to all, as to conditions: with glucosamine-6-phosphate
In data set [1] the parent is B1. In words: kcat; higher = faster cleavage; RNA array. The method in brief:
(§1)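 Sequenced MiSeq chips were the platform: E. coli RNA polymerase transcribed barcoded ribozyme variants on them in situ, and a hybridised Cy3 probe tracked these at 37 °C. After glucosamine-6-phosphate (40 μM to 10 mM) in HEPES/KCl/Mg(OAc)2 buffer was flowed in, tiles were imaged over ~14 h. Signals normalised to baseline and to non-cleaving reference variants were reduced to per-tile medians and fit to one- or two-exponential decays to obtain kobs. kcat and KM were derived through weighted Michaelis–Menten fits across concentrations.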

In data set [2] the parent is B1. In words: self-cleavage kobs at 40 uM GlcN6P; higher = faster cleavage; RNA array. The method in brief: as §1
The variants in data set [3] derive from B1. In words: self-cleavage kobs at 640 uM GlcN6P; higher = faster cleavage; RNA array. The method, boiled down: as §1
In data set [4] the parent is B1. In words: self-cleavage kobs at 2500 uM GlcN6P; higher = faster cleavage; RNA array. The method, boiled down: as §1
Data set [5] covers variants of B1. Kind of data set: self-cleavage kobs at 10000 uM GlcN6P; higher = faster cleavage; RNA array. The method, boiled down:
as §1

Data set [6] covers variants of B1. In words: KM; higher = weaker cofactor use; RNA array. The method in brief:
as §1

In data set [7] the parent is B1. Kind of data set: self-cleavage kobs at 160 uM GlcN6P; higher = faster cleavage; RNA array. The method, boiled down:
as §1

± gives the standard error. For part of these data: Variants at the floor of the assay were thinned out.

For the variant A12U A15C, the kcat in data set [1] was 0.00683 ± 0.003 s⁻¹. Also, in data set [2], the “self-cleavage kobs at 40 uM GlcN6P” value stood at 0.000955 ± 0.00021 s⁻¹. Moreover, the “self-cleavage kobs at 640 uM GlcN6P” value in data set [3] turned out to be 0.0109 ± 0.0048 s⁻¹. Further, the “self-cleavage kobs at 2500 uM GlcN6P” value in data set [4] stood at 0.00385 ± 0.0017 s⁻¹. The “self-cleavage kobs at 10000 uM GlcN6P” value in data set [5] was 0.0117 ± 0.0029 s⁻¹.
For the variant G29U G66A, the kcat in data set [1] is 0.0034 ± 0.00083 s⁻¹. Also, the Michaelis-Menten constant (KM) in data set [6] is 1710 ± 700 µM. In data set [2], the “self-cleavage kobs at 40 uM GlcN6P” value worked out at 8.79e-05 ± 1.5e-05 s⁻¹. Besides, the “self-cleavage kobs at 160 uM GlcN6P” value in data set [7] worked out at 0.000716 ± 0.0002 s⁻¹. In data set [3], the “self-cleavage kobs at 640 uM GlcN6P” value worked out at 0.000732 ± 0.00016 s⁻¹. Besides, the “self-cleavage kobs at 2500 uM GlcN6P” value in data set [4] worked out at 0.00168 ± 0.00038 s⁻¹. Moreover, the “self-cleavage kobs at 10000 uM GlcN6P” value in data set [5] worked out at 0.00316 ± 0.00039 s⁻¹.
On to A52U C70U, for which the kcat in data set [1] worked out at 0.00063 ± 0.0001 s⁻¹. In data set [6], the KM was 3490 ± 1100 µM. For the same variant, the “self-cleavage kobs at 640 uM GlcN6P” value in data set [3] turned out to be 0.000122 ± 2e-05 s⁻¹. Besides, the “self-cleavage kobs at 2500 uM GlcN6P” value in data set [4] was 0.000228 ± 3.4e-05 s⁻¹. In data set [5], the “self-cleavage kobs at 10000 uM GlcN6P” value came to 0.000483 ± 4.7e-05 s⁻¹.
U31A G66U: the kcat in data set [1] came out at 0.000713 ± 5.1e-05 s⁻¹. Also, the KM in data set [6] is 1380 ± 190 µM. Also, the “self-cleavage kobs at 40 uM GlcN6P” value in data set [2] came out at 2.99e-05 ± 1.3e-05 s⁻¹. Also, in data set [7], the “self-cleavage kobs at 160 uM GlcN6P” value was 7.61e-05 ± 1.5e-05 s⁻¹. The “self-cleavage kobs at 640 uM GlcN6P” value in data set [3] turned out to be 0.000206 ± 3.9e-05 s⁻¹. In addition, the “self-cleavage kobs at 2500 uM GlcN6P” value in data set [4] was determined as 0.000466 ± 7.9e-05 s⁻¹. The “self-cleavage kobs at 10000 uM GlcN6P” value in data set [5] stood at 0.000631 ± 7.6e-05 s⁻¹.
Take A33U A39C: the kcat in data set [1] turned out to be 1.74e-05 ± 2.5e-06 s⁻¹. Besides, the Michaelis constant (KM) in data set [6] worked out at 3650 ± 1600 µM.
As to G29C A52G, the kcat in data set [1] was 0.000125 ± 7.9e-06 s⁻¹. Besides, the Michaelis-Menten constant (KM) in data set [6] is 1940 ± 350 µM. Besides, the “self-cleavage kobs at 640 uM GlcN6P” value in data set [3] was 2.88e-05 ± 7.9e-06 s⁻¹. For the same variant, the “self-cleavage kobs at 2500 uM GlcN6P” value in data set [4] was determined as 7.18e-05 ± 1e-05 s⁻¹. In addition, the “self-cleavage kobs at 10000 uM GlcN6P” value in data set [5] amounted to 0.000104 ± 1e-05 s⁻¹.
For U45C C68G, in that order: 9.46e-05 ± 8.6e-06 s⁻¹, 714 ± 250 µM, 4.14e-05 ± 1.1e-05 s⁻¹, 8.62e-05 ± 1.5e-05 s⁻¹ and 8.34e-05 ± 1.2e-05 s⁻¹.
For the variant U46G U69A, the kcat in data set [1] was determined as 0.000212 ± 5.4e-05 s⁻¹. Moreover, in data set [2], the “self-cleavage kobs at 40 uM GlcN6P” value is 6.14e-05 ± 1.9e-05 s⁻¹. The “self-cleavage kobs at 160 uM GlcN6P” value in data set [7] was 9.88e-05 ± 1.7e-05 s⁻¹. Also, the “self-cleavage kobs at 640 uM GlcN6P” value in data set [3] was found to be 0.000212 ± 4.2e-05 s⁻¹. Also, in data set [4], the “self-cleavage kobs at 2500 uM GlcN6P” value is 0.000306 ± 4.6e-05 s⁻¹. Besides, the “self-cleavage kobs at 10000 uM GlcN6P” value in data set [5] came to 0.000143 ± 3.6e-05 s⁻¹.
As to A12G G37U, in data set [1], the kcat is under 1e-05 s⁻¹. The “self-cleavage kobs at 10000 uM GlcN6P” value in data set [5] is under 1e-05 s⁻¹.
With G38C C70A, the kcat in data set [1] worked out at 1.54e-05 ± 2.7e-06 s⁻¹.
Consider A15C A42G A53C, for which the kcat in data set [1] is 0.00239 ± 0.001 s⁻¹. Moreover, the “self-cleavage kobs at 640 uM GlcN6P” value in data set [3] came to 0.000469 ± 0.00012 s⁻¹. Besides, the “self-cleavage kobs at 2500 uM GlcN6P” value in data set [4] came out at 0.000746 ± 0.00018 s⁻¹. In data set [5], the “self-cleavage kobs at 10000 uM GlcN6P” value was determined as 0.00192 ± 0.00042 s⁻¹.
Take C50U C67U: the turnover number (kcat) in data set [1] amounted to 2.42e-05 ± 5.8e-06 s⁻¹. The “self-cleavage kobs at 2500 uM GlcN6P” value in data set [4] stood at 3.69e-05 ± 1.4e-05 s⁻¹.
Consider G37A A42G, for which, in data set [1], the kcat came to 0.00683 ± 0.0013 s⁻¹. Further, the Michaelis-Menten constant (KM) in data set [6] amounted to 3670 ± 920 µM. Also, the “self-cleavage kobs at 40 uM GlcN6P” value in data set [2] was 8.75e-05 ± 1.5e-05 s⁻¹. Further, the “self-cleavage kobs at 160 uM GlcN6P” value in data set [7] came to 0.000301 ± 8.8e-05 s⁻¹. In data set [3], the “self-cleavage kobs at 640 uM GlcN6P” value came out at 0.000936 ± 0.00014 s⁻¹. Also, in data set [4], the “self-cleavage kobs at 2500 uM GlcN6P” value was determined as 0.00251 ± 0.00044 s⁻¹. Moreover, in data set [5], the “self-cleavage kobs at 10000 uM GlcN6P” value stood at 0.00549 ± 0.00094 s⁻¹.
Consider G37A A42U, for which, in data set [1], the kcat stood at 0.000872 ± 0.00012 s⁻¹. Besides, the KM in data set [6] was determined as 2220 ± 480 µM. Further, the “self-cleavage kobs at 40 uM GlcN6P” value in data set [2] was found to be 2.47e-05 ± 1.1e-05 s⁻¹. For the same variant, in data set [7], the “self-cleavage kobs at 160 uM GlcN6P” value was 5.06e-05 ± 1.2e-05 s⁻¹. Moreover, the “self-cleavage kobs at 640 uM GlcN6P” value in data set [3] turned out to be 0.000193 ± 2.3e-05 s⁻¹. In addition, the “self-cleavage kobs at 2500 uM GlcN6P” value in data set [4] is 0.00052 ± 6.6e-05 s⁻¹. For the same variant, the “self-cleavage kobs at 10000 uM GlcN6P” value in data set [5] turned out to be 0.000669 ± 9.4e-05 s⁻¹.
With A6U U55G, the turnover number (kcat) in data set [1] was 0.00137 ± 0.00067 s⁻¹. Besides, the “self-cleavage kobs at 640 uM GlcN6P” value in data set [3] was determined as 4.48e-05 ± 1e-05 s⁻¹. In addition, the “self-cleavage kobs at 2500 uM GlcN6P” value in data set [4] came out at 0.000118 ± 1.9e-05 s⁻¹. Also, the “self-cleavage kobs at 10000 uM GlcN6P” value in data set [5] came to 0.000416 ± 6.4e-05 s⁻¹.
Turning to G51U U55G, the catalytic constant (kcat) in data set [1] is under 1e-05 s⁻¹. Moreover, the Michaelis-Menten constant (KM) in data set [6] is 76.4 ± 18 µM. For the same variant, the “self-cleavage kobs at 10000 uM GlcN6P” value in data set [5] is under 1e-05 s⁻¹.
